Measured values as given in article PMC4982137, “Mycobacterium tuberculosis H37Ra: a surrogate for the expression of conserved, multimeric proteins of M.tb H37Rv” (Microbial Cell Factories, 2016).
Counter-ions that a name gives are not always drawn.

Columns and labels:
[1] = target: MT-H-Eno (M.tb H37Rv Enolase) (Mycobacterium tuberculosis, UniProt P9WNL1)
[2] = target: T1, MT-PykA-H (M.tb H37Rv PykA) (Mycobacterium tuberculosis, UniProt P9WKE5)
T1 construct: gene pyk

[3] = target: transferrin-biotin (human) (UniProt P02787); experiment: pull-down
transferrin-biotin (human), sequence (P02787 20-698): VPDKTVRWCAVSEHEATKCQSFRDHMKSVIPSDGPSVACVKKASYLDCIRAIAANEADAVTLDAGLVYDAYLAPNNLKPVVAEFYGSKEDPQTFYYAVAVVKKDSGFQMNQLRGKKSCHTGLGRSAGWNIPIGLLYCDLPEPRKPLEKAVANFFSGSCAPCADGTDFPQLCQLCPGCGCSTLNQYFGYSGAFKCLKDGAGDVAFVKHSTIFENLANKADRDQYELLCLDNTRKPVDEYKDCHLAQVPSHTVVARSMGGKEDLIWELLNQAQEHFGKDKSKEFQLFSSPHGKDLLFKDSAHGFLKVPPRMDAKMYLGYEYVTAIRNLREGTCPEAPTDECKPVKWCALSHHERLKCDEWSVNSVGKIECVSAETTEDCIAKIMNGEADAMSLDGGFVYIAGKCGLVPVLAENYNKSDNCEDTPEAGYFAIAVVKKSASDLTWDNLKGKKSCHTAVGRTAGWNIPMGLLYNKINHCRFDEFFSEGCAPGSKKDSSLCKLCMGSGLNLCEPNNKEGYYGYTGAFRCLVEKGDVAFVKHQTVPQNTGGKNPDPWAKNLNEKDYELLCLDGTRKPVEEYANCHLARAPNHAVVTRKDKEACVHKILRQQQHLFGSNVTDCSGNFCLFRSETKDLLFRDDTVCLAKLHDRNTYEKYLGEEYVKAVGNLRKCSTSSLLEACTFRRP

[4] = tested on: NC(=O)c1ccc[n+]([C@@H]2O[C@H](COP(=O)(O)OP(=O)(O)OC[C@H]3O[C@@H](n4cnc5c(N)ncnc54)[C@H](O)[C@@H]3O)[C@@H](O)[C@H]2O)c1; experiment: purified protein; details: pH 8.5; 25.0 °C
[5] = tested on: O=C[C@H](O)COP(=O)(O)O; experiment: purified protein; details: pH 8.5; 25.0 °C

MT-H-Eno (M.tb H37Rv Enolase), sequence (P9WNL1 whole entry, looked up): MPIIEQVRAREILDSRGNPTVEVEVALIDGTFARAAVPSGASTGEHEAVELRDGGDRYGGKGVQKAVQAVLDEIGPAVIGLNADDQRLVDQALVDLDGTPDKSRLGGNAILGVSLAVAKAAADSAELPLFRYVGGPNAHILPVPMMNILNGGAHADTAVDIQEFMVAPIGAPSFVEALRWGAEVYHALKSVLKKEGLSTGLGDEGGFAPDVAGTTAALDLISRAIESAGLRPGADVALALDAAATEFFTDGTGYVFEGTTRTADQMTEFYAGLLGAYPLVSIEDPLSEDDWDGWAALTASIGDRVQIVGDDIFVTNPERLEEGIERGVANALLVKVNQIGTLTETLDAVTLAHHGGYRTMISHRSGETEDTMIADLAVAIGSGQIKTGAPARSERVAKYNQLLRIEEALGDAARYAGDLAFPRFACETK
T1 sequence (P9WKE5 whole entry, looked up): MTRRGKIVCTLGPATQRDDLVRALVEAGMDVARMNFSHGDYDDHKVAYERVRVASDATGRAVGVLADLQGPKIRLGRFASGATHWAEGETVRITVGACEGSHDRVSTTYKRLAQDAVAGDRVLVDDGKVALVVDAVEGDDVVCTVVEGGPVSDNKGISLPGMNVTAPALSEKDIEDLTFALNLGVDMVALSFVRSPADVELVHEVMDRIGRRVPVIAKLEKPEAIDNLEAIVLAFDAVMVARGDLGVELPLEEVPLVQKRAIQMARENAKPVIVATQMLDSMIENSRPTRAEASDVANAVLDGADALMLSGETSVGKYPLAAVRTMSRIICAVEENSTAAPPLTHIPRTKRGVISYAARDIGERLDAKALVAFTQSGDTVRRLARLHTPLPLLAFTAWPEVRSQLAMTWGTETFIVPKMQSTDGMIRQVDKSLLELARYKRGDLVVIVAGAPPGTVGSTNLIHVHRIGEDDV

Compound: O=C(O)[C@@H](CO)OP(=O)(O)O [D (+)-2 phosphoglyceric acid sodium salt]
- absorbance increase at 240 nm [1]: buffer lacking the specific substrate 2-PG

Compound: C=C(OP(=O)(O)O)C(=O)O [sodium phosphoenol pyruvate]
- lactate dehydrogenase-coupled NADH oxidation at 340 nm [2]: buffer lacking the specific substrate sodium phosphoenol pyruvate

Compound: EC-H-GAPDH: recombinant M.tb H37Rv GAPDH with an N-terminal His tag, expressed in E. coli (from UniProt P9WN83 1-339) (enzyme)
- percent decrease of binding against MT-GAPDH-H (densitometry) [3]: 70%

Compound: MT-GAPDH-H (M.tb rGAPDH) (Mycobacterium tuberculosis H37Rv)
- Km [4]: 101.2 ± 8.9 µM
- Km [5]: 169.6 ± 10.53 µM
- kcat [5]: 0.00332 ± 0.0002 s⁻¹
